Measured values: patent US20030044914A1 (SALK INSTITUTE FOR BIOLOGICAL STUDIES, published 2003)

Assays:
hRARα = biological target: T1, hRARα (human, UniProt P10276 1-462); experiment: in vitro DNA-binding (gel shift) with in vitro translated proteins and a cocktail of response elements
T1 construct: also called human RAR alpha
T1 sequence (looked up): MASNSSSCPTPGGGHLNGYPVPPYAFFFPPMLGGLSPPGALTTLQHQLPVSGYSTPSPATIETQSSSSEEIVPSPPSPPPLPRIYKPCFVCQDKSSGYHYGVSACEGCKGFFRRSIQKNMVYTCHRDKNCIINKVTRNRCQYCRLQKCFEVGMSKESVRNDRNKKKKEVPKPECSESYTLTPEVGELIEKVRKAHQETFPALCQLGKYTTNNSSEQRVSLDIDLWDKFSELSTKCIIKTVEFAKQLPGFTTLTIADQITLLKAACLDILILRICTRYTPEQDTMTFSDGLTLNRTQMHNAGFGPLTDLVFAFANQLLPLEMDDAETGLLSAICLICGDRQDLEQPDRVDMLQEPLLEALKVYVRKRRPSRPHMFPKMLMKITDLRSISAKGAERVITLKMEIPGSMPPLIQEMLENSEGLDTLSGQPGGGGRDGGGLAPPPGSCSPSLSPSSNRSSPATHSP

hRXRα = biological target: T2, hRXRα (human, UniProt P19793 1-462); experiment: in vitro DNA-binding (gel shift) with in vitro translated proteins
T2 construct: In vitro transcribed and translated protein used in gel shift assays with XOR-6; also called human RXR alpha
T2 sequence (looked up): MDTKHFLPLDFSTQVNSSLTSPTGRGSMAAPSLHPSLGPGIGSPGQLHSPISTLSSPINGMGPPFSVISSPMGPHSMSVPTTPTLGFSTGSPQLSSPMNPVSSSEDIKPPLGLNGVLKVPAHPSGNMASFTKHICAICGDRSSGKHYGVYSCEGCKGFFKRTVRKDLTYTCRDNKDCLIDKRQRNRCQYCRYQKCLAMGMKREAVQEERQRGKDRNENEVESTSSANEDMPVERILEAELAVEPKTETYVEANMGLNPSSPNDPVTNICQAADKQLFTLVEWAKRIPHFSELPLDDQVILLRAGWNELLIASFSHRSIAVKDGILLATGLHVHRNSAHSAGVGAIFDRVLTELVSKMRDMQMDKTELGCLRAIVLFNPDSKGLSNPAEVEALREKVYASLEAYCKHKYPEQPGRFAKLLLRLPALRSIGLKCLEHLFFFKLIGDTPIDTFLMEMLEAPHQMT
Method: DNA-binding analysis was performed using in vitro transcribed, translated proteins (Perlmann et al., 1993, supra. oligonucleotides employed have been described previously (see Umesono et al., in Cell 65:1255-1266 (1990) and Perlmann et al., 1993, supra).
Thus, in vitro transcribed and translated proteins were mixed with a cocktail of hormone response elements containing DR0, DR1, PPRE, DR2, MLV-TRE, SPP1, and β-RARE. Thus, XOR-6 and hRXRα proteins were mixed and incubated with radiolabelled response elements. DR-1 through 5 are direct repeats of the sequence […] separated by 1-5 nucleotides. Reaction conditions and gel electrophoresis employed were as described by Perlmann et al., 1993, supra.

B1: XOR-6 (Xenopus Orphan Receptor 6) (receptor)
chain: MWKVQETLVLEEEEEEEDASNSCGTGEDEDDGDPKICRACGDRATGYHFNAMTCEGCKGFFRRAVKRNLRLSCPFQNSCVINKSNRRHCQACRLKKCLDIGMRKELIMSDAAVEQRRALIKRKHKLTKLPPTPPGASLTPEQQHFLTQLVGAHTKTFDFNFTFSKNFRPIRRSSDPTQEPQATSSEAFLMLPHISDLVTYMIKGIISFAKMLPYFKSLDIEDQIALLKGSVAEVSVIRFNTVFNSDTNTWECGPFTYDTEDMFLAGFRQLFLEPLVRIHRMMRKLNVQSEEYAMMAALSIFASYRPGVCDWEKIQKLQEHIALTLKDFIDSQRPPSPQNRLLYPKIMECLTELRTVNDIHSKQLLEIWDIQPDATPLMREVFGSPE
notes: Expressed from pCDG-XOR6 (XOR-6 protein coding region) in CV-1 cells; Full-length, about 386 amino acids; also called full-length XOR-6
Does B1 bind (hRARα)?
Result: no binding

Does B1 bind (hRXRα)?
Result: binds
